What was measured:
[1] = system: CD4+ and CD8+ T cells numbers and activation status, IFN-γ and CXCL10; test: PD markers of T cell immune response in patients dosed with efti every 2 weeks; type: in vivo, human
[2] = system: Blood cell subsets (CD4, CD8, PBMCs, monocytes) and Th1 biomarker (CXCL-10); test: AIPAC immuno-monitoring of blood cell subsets, Th1 biomarker and absolute lymphocyte count; type: in vivo, human
Description: Immuno-monitoring was also conducted. Blood cell subsets (CD4, CD8, PBMCs, monocytes) and Th1 biomarker (CXCL-10) were measured centrally. Comparison was done using 2-sided Wilcoxon test.
(§1) On the other hand, pre-study levels of CD8+ T cells were not correlated with OS in either treatment arm. Efti increases secondary target cells (CD8+ T cells) in the peripheral blood, leading to improved OS.
Increase of ALC is linked to improved survival for patients treated with efti arm, but not for patients in the placebo arm (FIG. 9). […] As this increase is observed early, it could be used in the future as a potential early on study biomarker for treatment continuation.

[3] = system: HER2 negative hormone receptor-positive metastatic breast cancer patients; test: AIPAC Phase IIb study: paclitaxel+IMP321 vs paclitaxel+placebo, overall survival; type: in vivo, human
Description: A multicentre, placebo-controlled, double-blind, 1:1 randomised Phase IIb study in female HER2 negative hormone receptor-positive metastatic breast cancer patients was conducted. The study comprised two stages: • stage 1 which was an open-label, safety run-in stage consisting of cohorts 1 and 2 to confirm the recommended Phase II dose (RPTD) of IMP321 in combination with paclitaxel; and • stage 2 which was a placebo-controlled, double-blind randomisation stage, paclitaxel+IMP321 at the RPTD compared to paclitaxel+placebo.
The chemo-immunotherapy phase consisted of 6 cycles of 4 weeks. Patients received weekly paclitaxel at Days 1, 8 and 15 with adjunctive treatment of study agent (IMP321) on Days 2 and 16 of each 4-week cycle. After completion of the 6-cycle chemo-immunotherapy phase, responding or stable patients received study agent (IMP321) every 4 weeks during the maintenance phase for an additional period of up to 12 injections.
The chemo-immunotherapy phase consisted of 6 cycles of 4 weeks. Patients received weekly paclitaxel at Days 1, 8 and 15 with adjunctive treatment of study agent (placebo) on Days 2 and 16 of each 4-week cycle.
After completion of the 6-cycle chemo-immunotherapy phase, responding or stable patients received study agent (placebo) every 4 weeks during the maintenance phase for an additional period of up to 12 injections.
In addition, multivariate analysis was done using backward selection (p>0.15) from the univariate cox model.

[4] = system: primary and secondary immune cells; test: PD effects in vitro and ex vivo: activation of immune cells, induction of cytokines; type: cell-based
[5] = human, in vivo
[6] = Nonclinical toxicity study; type: in vivo
[7] = Clinical pharmacokinetics of s.c. efti in cancer patients; type: in vivo, human; conditions: for Cavg24h: cancer patients
Description: as §1
Efti doses of 6 and 30 mg given clinically lead to plasma Cmax of ≥1 ng/ml in most patients, this concentration reflecting the minimum concentration for desired efti PD effects. However, systemic efti levels of >1 ng/ml and lasting for ≥24 h have been observed in about 90% of patients receiving efti 30 mg, compared to only 20% at 6 mg.

[8] = Pharmacokinetics of s.c. IMP321 in metastatic renal cell cancer patients; type: in vivo, human; conditions: for at least 24 hours after s.c. injection; doses of more than 6 mg
[9] = Clinical safety and tolerability of IMP321 (efti)
[10] = Overall population, paclitaxel+IMP321 30 mg vs paclitaxel+placebo, univariate analysis, p 0.197
[11] = Sub-group <5 years since diagnosis, multivariate analysis table, p 0.025
[12] = Sub-group <65 years, univariate analysis, p 0.017
[13] = Sub-group Luminal B, univariate analysis, p 0.049
[14] = Sub-group high (>3.65) NLR at baseline, multivariate analysis table, p 0.012
[15] = Sub-group low baseline monocytes (<0.25/nL), univariate analysis, p 0.008
[16] = Sub-group low baseline monocytes, multivariate analysis table, p 0.008
[17] = Sub-group no prior taxane therapy, multivariate analysis table, p 0.076
[18] = Sub-group no prior taxane therapy, univariate analysis, p 0.076
[19] = 8 treatment emergent adverse events in 3 of 5 patients with Cmax >10 ng/ml

B1: IMP321: recombinant soluble human LAG-3Ig fusion protein, 160-kDa dimer: extracellular domain of hLAG-3 fused to human IgG1 Fc; APC activator (protein)
chain: LQPGAEVPVVWAQEGAPAQLPCSPTIPLQDLSLLRRAGVTWQHQPDSGPPAAAPGHPLAPGPHPAAPSSWGPRPRRYTVLSVGPGGLRSGRLPLQPRVQLDERGRQRGDFSLWLRPARRADAGEYRAAVHLRDRALSCRLRLRLGQASMTASPPGSLRASDWVILNCSFSRPDRPASVHWFRNRGQGRVPVRESPHHHLAESFLFLPQVSPMDSGPWGCILTYRDGFNVSIMYNLTVLGLEPPTPLTVYAGAGSRVGLPCRLPAGVGTRSFLTAKWTPPGGGPDLLVTGDNGDFTLRLEDVSQAQAGTYTCHIHLQEQQLNATVTLAIITVTPKSFGSPGSLGKLLCEVTPVSGQERFVWSSLDTPSQRSFSGPWLEAQEAQLLSQPWQCQLYQGERLLGAAVYFTELSSPG
modifications: left off: small tags and cut ends; a dimerising Fc or GST
proportion of patients with upregulation of at least one PD marker (1.4-fold increase compared to baseline) ([1]; 1 mg): about 50%
proportion of patients with upregulation of at least one PD marker (1.4-fold increase compared to baseline) ([1]; 30 mg): about 90%
On treatment fold-change of PBMCs ([2]; IMP321 group vs placebo 1.41, p=0.041): 2.00 fold
On treatment fold-change of T cells ([2]; IMP321 group vs placebo 1.48, p=0.086): 2.28 fold
On treatment fold-change of CXCL10 ([2]; IMP321 group vs placebo 1.56, p=0.06): 2.78 fold
On treatment fold-change of monocytes ([2]; IMP321 group vs placebo 2.29, p=0.025): 5.81 fold
absolute lymphocyte count increase ([2]; efti arm, early (after 4 weeks) and sustainable): ≥ 0.2 nL⁻¹
circulating CD8+ T cells ([2]; efti arm, fresh whole blood by FACS (n=75), samples 2 weeks after previous efti dose, not in placebo arm): sustainable, statistically significant increase
Post baseline CD8 T cells count (median) ([2]; patients with improved OS, IMP321 group vs placebo 223, p=0.005): 377 µL⁻¹
Post baseline CD4 T cells count (median) ([2]; patients with improved OS, IMP321 group vs placebo 736, p=0.038): 896 µL⁻¹
Absolute gain in median OS [3, 10]: +2.9 months
Hazard Ratio [95% CI] (OS) [3, 10]: 0.88
Absolute gain in median OS [3, 11]: +4.8 months
Hazard Ratio [95% CI] (OS) [3, 11]: 0.62
Absolute gain in median OS [3, 12]: +7.5 months
Hazard Ratio [95% CI] (OS) [3, 12]: 0.66
Absolute gain in median OS [3, 13]: +4.2 months
Hazard Ratio [95% CI] (OS) [3, 13]: 0.67
Absolute gain in median OS [3, 14]: +6.9 months
Hazard Ratio [95% CI] (OS) [3, 14]: 0.61
Absolute gain in median OS [3, 15]: +19.6 months
Hazard Ratio [95% CI] (OS) [3, 15]: 0.44
Absolute gain in median OS [3, 16]: +19.6 months
Hazard Ratio [95% CI] (OS) [3, 16]: 0.44
Absolute gain in median OS [3, 17]: +4.8 months
Hazard Ratio [95% CI] (OS) [3, 17]: 0.74
Absolute gain in median OS [3, 18]: +4.8 months
Hazard Ratio [95% CI] (OS) [3, 18]: 0.74
improvement in median overall survival (OS) ([3]; young patients (<65 years), low baseline monocytes (<0.25/nL), or Luminal B, exploratory univariate analysis): significant and clinically meaningful improvement
efti concentration at which desired PD effects start [4]: 1 to 10 ng/mL
safety and tolerability of dose [5]: safe and tolerable
safety of s.c. doses ([5]; sc): safe
NOAEL dose [6]: 15 mg/kg
patients with systemic efti levels of >1 ng/ml lasting for ≥24 h ([7]; 6 mg): 20%
Cavg24h ([7]; 6 mg): 0.8 ng/mL
patients with systemic efti levels of >1 ng/ml lasting for ≥24 h ([7]; 30 mg): about 90%
Cavg24h ([7]; 30 mg s.c.): 3.3 ng/mL
plasma Cmax ([7]; doses of 6 and 30 mg, in most patients): ≥ 1 ng/mL
time until efti disappears from the bloodstream after injection ([7]; s.c. injection): 3 to 4 days
blood concentration of IMP321 [8]: > 1 ng/mL
grade ≥3 adverse events related to efti ([9]; 5 patients with Cmax of >10 ng/ml at dose 1): no grade ≥3 adverse events related to efti
adverse reactions mild in severity [9, 19]: 62.5%
adverse reactions moderate in severity [9, 19]: 37.5%
dose limiting toxicity ([9]; observed to date): No dose limiting toxicity
